test system: Escherichia coli TOP10; test: shrunken log2 fold change of peptide-encoding DNA abundance (4.5 h post-induction vs induction); higher = less antimicrobial activity (less host growth inhibition); conditions: time post-induction: 4.5 h; library: site-saturation at positions 5, 18, 19, 20
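Also: peptides expressed intracellularly from a pBAD plasmid library in pooled LB shake-flask culture, induced with 0.3% L-arabinose, DNA abundance read by NGS, three biological replicates, DESeq2 with apeglm shrinkage.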

Row | Sequence | shrunken log2 fold change
1 | RRIRTRPPRLPRPRPRPPDWPRP | 0.705
2 | RRIRTRPPRLPRPRPRPPFLPRP | 0.207
3 | RRIRTRPPRLPRPRPRPPGTPRP | 0.331
4 | RRIRTRPPRLPRPRPRPPHEPRP | 0.373
5 | RRIRTRPPRLPRPRPRPPHWPRP | 0.333
6 | RRIRTRPPRLPRPRPRPPIDPRP | -0.231
7 | RRIRTRPPRLPRPRPRPPLDPRP | 0.148
8 | RRIRTRPPRLPRPRPRPPMDPRP | 0.15
9 | RRIRTRPPRLPRPRPRPPNDPRP | -0.133
10 | RRIRTRPPRLPRPRPRPPQNPRP | 0.329
11 | RRIRTRPPRLPRPRPRPPRFPRP | 0.219
12 | RRIRTRPPRLPRPRPRPPRRPRP | 0.386
13 | RRIRTRPPRLPRPRPRPPRTPRP | 0.281
14 | RRIRTRPPRLPRPRPRPPSFPRP | 0.264
15 | RRIRTRPPRLPRPRPRPPSHPRP | -0.143
16 | RRIRTRPPRLPRPRPRPPSMPRP | 0.13
17 | RRIRTRPPRLPRPRPRPPTGPRP | 0.158
18 | RRIRTRPPRLPRPRPRPPTRPRP | 0.663
19 | RRIRTRPPRLPRPRPRPPYNPRP | -0.252
20 | RRIRTRPPRLPRPRPRPPYSPRP | -0.135
21 | RRIRTRPPRLPRPRPRPQARPRP | -0.0339
22 | RRIRTRPPRLPRPRPRPQDHPRP | -0.805
23 | RRIRTRPPRLPRPRPRPQDSPRP | -0.153
24 | RRIRTRPPRLPRPRPRPQENPRP | -0.165
25 | RRIRTRPPRLPRPRPRPQFVPRP | -0.127

Row | Sequence | shrunken log2 fold change
26 | RRIRTRPPRLPRPRPRPQGAPRP | -0.0215
27 | RRIRTRPPRLPRPRPRPQHLPRP | -0.0898
28 | RRIRTRPPRLPRPRPRPQHMPRP | -0.518
29 | RRIRTRPPRLPRPRPRPQKMPRP | 0.176
30 | RRIRTRPPRLPRPRPRPQKPPRP | -0.0591
31 | RRIRTRPPRLPRPRPRPQKWPRP | -0.147
32 | RRIRTRPPRLPRPRPRPQLKPRP | 0.0828
33 | RRIRTRPPRLPRPRPRPQLSPRP | 0.212
34 | RRIRTRPPRLPRPRPRPQMMPRP | -0.0792
35 | RRIRTRPPRLPRPRPRPQMVPRP | -0.37
36 | RRIRTRPPRLPRPRPRPQPDPRP | -0.136
37 | RRIRTRPPRLPRPRPRPQQHPRP | -0.37
38 | RRIRTRPPRLPRPRPRPQSDPRP | -0.0398
39 | RRIRTRPPRLPRPRPRPQTAPRP | -0.0946
40 | RRIRTRPPRLPRPRPRPQTGPRP | -0.128
41 | RRIRTRPPRLPRPRPRPQTNPRP | -0.199
42 | RRIRTRPPRLPRPRPRPQTRPRP | 0.145
43 | RRIRTRPPRLPRPRPRPQWEPRP | 0.0154
44 | RRIRTRPPRLPRPRPRPQYIPRP | -0.331
45 | RRIRTRPPRLPRPRPRPRANPRP | 0.177
46 | RRIRTRPPRLPRPRPRPRAWPRP | 0.132
47 | RRIRTRPPRLPRPRPRPRCRPRP | 0.158
48 | RRIRTRPPRLPRPRPRPRCSPRP | -0.262
49 | RRIRTRPPRLPRPRPRPRFAPRP | 0.37
50 | RRIRTRPPRLPRPRPRPRFRPRP | 0.158

Row | Sequence | shrunken log2 fold change
51 | RRIRTRPPRLPRPRPRPRGCPRP | 0.261
52 | RRIRTRPPRLPRPRPRPRMGPRP | 0.108
53 | RRIRTRPPRLPRPRPRPRMTPRP | 0.146
54 | RRIRTRPPRLPRPRPRPRNCPRP | -0.176
55 | RRIRTRPPRLPRPRPRPRNNPRP | -0.803
56 | RRIRTRPPRLPRPRPRPRNQPRP | -0.139
57 | RRIRTRPPRLPRPRPRPRNYPRP | -0.0303
58 | RRIRTRPPRLPRPRPRPRQHPRP | -0.374
59 | RRIRTRPPRLPRPRPRPRRCPRP | 0.0091
60 | RRIRTRPPRLPRPRPRPRRMPRP | 0.15
61 | RRIRTRPPRLPRPRPRPRTEPRP | 0.153
62 | RRIRTRPPRLPRPRPRPRTKPRP | 0.74
63 | RRIRTRPPRLPRPRPRPRTYPRP | -0.288
64 | RRIRTRPPRLPRPRPRPRVEPRP | 0.073
65 | RRIRTRPPRLPRPRPRPRVHPRP | 0.0778
66 | RRIRTRPPRLPRPRPRPRWMPRP | 0.0454
67 | RRIRTRPPRLPRPRPRPRWVPRP | 0.216
68 | RRIRTRPPRLPRPRPRPRYEPRP | -0.0806
69 | RRIRTRPPRLPRPRPRPSAHPRP | -0.229
70 | RRIRTRPPRLPRPRPRPSCDPRP | -0.347
71 | RRIRTRPPRLPRPRPRPSCEPRP | -0.252
72 | RRIRTRPPRLPRPRPRPSCVPRP | -0.185
73 | RRIRTRPPRLPRPRPRPSEKPRP | -0.0354
74 | RRIRTRPPRLPRPRPRPSFAPRP | -0.126
75 | RRIRTRPPRLPRPRPRPSGNPRP | -0.168

Row | Sequence | shrunken log2 fold change
76 | RRIRTRPPRLPRPRPRPSKHPRP | -0.351
77 | RRIRTRPPRLPRPRPRPSKSPRP | -0.437
78 | RRIRTRPPRLPRPRPRPSLCPRP | -0.0129
79 | RRIRTRPPRLPRPRPRPSLMPRP | 0.0356
80 | RRIRTRPPRLPRPRPRPSLVPRP | 0.0852
81 | RRIRTRPPRLPRPRPRPSMAPRP | 0.444
82 | RRIRTRPPRLPRPRPRPSMCPRP | -0.377
83 | RRIRTRPPRLPRPRPRPSMKPRP | 0.00896
84 | RRIRTRPPRLPRPRPRPSNLPRP | -0.97
85 | RRIRTRPPRLPRPRPRPSNSPRP | -1.22
86 | RRIRTRPPRLPRPRPRPSPAPRP | 0.133
87 | RRIRTRPPRLPRPRPRPSPLPRP | -0.335
88 | RRIRTRPPRLPRPRPRPSPPPRP | -0.0898
89 | RRIRTRPPRLPRPRPRPSQHPRP | -0.387
90 | RRIRTRPPRLPRPRPRPSRNPRP | -0.0832
91 | RRIRTRPPRLPRPRPRPSSGPRP | 0.11
92 | RRIRTRPPRLPRPRPRPSTKPRP | -0.145
93 | RRIRTRPPRLPRPRPRPSVYPRP | -0.389
94 | RRIRTRPPRLPRPRPRPSYDPRP | -0.495
95 | RRIRTRPPRLPRPRPRPSYRPRP | -0.271
96 | RRIRTRPPRLPRPRPRPSYSPRP | -0.316
97 | RRIRTRPPRLPRPRPRPTAMPRP | 0.301
98 | RRIRTRPPRLPRPRPRPTCMPRP | -0.262
99 | RRIRTRPPRLPRPRPRPTCWPRP | 0.00427
100 | RRIRTRPPRLPRPRPRPTDKPRP | -0.55

Row | Sequence | shrunken log2 fold change
101 | RRIRTRPPRLPRPRPRPTEFPRP | -0.0268
102 | RRIRTRPPRLPRPRPRPTHMPRP | -0.0271
103 | RRIRTRPPRLPRPRPRPTHNPRP | 0.0318
104 | RRIRTRPPRLPRPRPRPTIVPRP | -0.0242
105 | RRIRTRPPRLPRPRPRPTKMPRP | -0.355
106 | RRIRTRPPRLPRPRPRPTMHPRP | 0.0843
107 | RRIRTRPPRLPRPRPRPTNEPRP | -0.261
108 | RRIRTRPPRLPRPRPRPTNNPRP | -0.618
109 | RRIRTRPPRLPRPRPRPTNPPRP | -0.374
110 | RRIRTRPPRLPRPRPRPTPDPRP | 0.306
111 | RRIRTRPPRLPRPRPRPTPFPRP | 0.356
112 | RRIRTRPPRLPRPRPRPTPKPRP | 0.283
113 | RRIRTRPPRLPRPRPRPTPNPRP | 0.293
114 | RRIRTRPPRLPRPRPRPTPRPRP | 0.674
115 | RRIRTRPPRLPRPRPRPTRFPRP | 0.463
116 | RRIRTRPPRLPRPRPRPTRMPRP | 0.196
117 | RRIRTRPPRLPRPRPRPTRPPRP | 0.614
118 | RRIRTRPPRLPRPRPRPTRQPRP | 0.112
119 | RRIRTRPPRLPRPRPRPTRRPRP | 0.71
120 | RRIRTRPPRLPRPRPRPTSCPRP | 0.104
121 | RRIRTRPPRLPRPRPRPTSFPRP | 0.0555
122 | RRIRTRPPRLPRPRPRPTWHPRP | 0.153
123 | RRIRTRPPRLPRPRPRPTWIPRP | -0.0425
124 | RRIRTRPPRLPRPRPRPTWWPRP | 0.538
125 | RRIRTRPPRLPRPRPRPTYCPRP | -0.379

Row | Sequence | shrunken log2 fold change
126 | RRIRTRPPRLPRPRPRPTYGPRP | -0.104
127 | RRIRTRPPRLPRPRPRPTYNPRP | -0.593
128 | RRIRTRPPRLPRPRPRPVCMPRP | -0.17
129 | RRIRTRPPRLPRPRPRPVDAPRP | 0.188
130 | RRIRTRPPRLPRPRPRPVEIPRP | -0.2
131 | RRIRTRPPRLPRPRPRPVELPRP | -0.0533
132 | RRIRTRPPRLPRPRPRPVFDPRP | -0.226
133 | RRIRTRPPRLPRPRPRPVFSPRP | -0.648
134 | RRIRTRPPRLPRPRPRPVGVPRP | 0.234
135 | RRIRTRPPRLPRPRPRPVHQPRP | -0.022
136 | RRIRTRPPRLPRPRPRPVIPPRP | -0.133
137 | RRIRTRPPRLPRPRPRPVKCPRP | -0.0123
138 | RRIRTRPPRLPRPRPRPVLEPRP | 0.179
139 | RRIRTRPPRLPRPRPRPVNMPRP | -0.192
140 | RRIRTRPPRLPRPRPRPVPEPRP | 0.323
141 | RRIRTRPPRLPRPRPRPVQEPRP | 0.207
142 | RRIRTRPPRLPRPRPRPVQLPRP | -0.16
143 | RRIRTRPPRLPRPRPRPVQMPRP | 0.000776
144 | RRIRTRPPRLPRPRPRPVSDPRP | -0.114
145 | RRIRTRPPRLPRPRPRPVTDPRP | 0.0266
146 | RRIRTRPPRLPRPRPRPVTNPRP | -0.0277
147 | RRIRTRPPRLPRPRPRPVVAPRP | 0.418
148 | RRIRTRPPRLPRPRPRPVVWPRP | 0.617
149 | RRIRTRPPRLPRPRPRPVWKPRP | -0.026
150 | RRIRTRPPRLPRPRPRPWAYPRP | 0.013

From the supplement of paper PMC9112550, “Optimization of the antimicrobial peptide Bac7 by deep mutational scanning” (BMC Biology, 2022)
